System: CFI
Assay: CFI bioactivity in plasma samples from Alzheimer's disease patients treated with Compound A
Type: in vivo, human
Conditions: 6 mg/kg intravenously
Protocol: FIG. 15. CFI bioactivity in samples from Alzheimer's disease patients treated with anti-BAM (Compound A).
3.14. Providing Evidence that an Anti-BAM Antibody can Modulate CFI Bioactivity in Alzheimer's Patients. Finally, a set of human samples from Alzheimer disease patients treated with Compound A were evaluated for CFI bioactivity in a single assay. The assay conditions follow: • 80 μg/ml CFH and C3b. • 0.01-25 nL of plasma (half-log dilutions). • Incubation 2 hours. • Measurement of iC3b via ELISA. • Samples from one patient were run in a single assay. • Each assay was run in singlets. • To control inter-assay variability a common plasma sample was run in each assay.

B1: Compound A: anti-BAM antibody comprising a heavy chain of SEQ ID NO: 10 and a light chain of SEQ ID NO: 11 (antibody)
heavy: EVQLVESGGGLVQPGGSLRLSCAVSGFTFSDNGMAWVRQAPGKGLEWVSFISNLAYSIDYADTVTGRFTISRDNAKNSLYLQMNSLRAEDTAVYYCVSGTWFAYWGQGTLVTVSSASTKGPSVFPLAPSSKSTSGGTAALGCLVKDYFPEPVTVSWNSGALTSGVHTFPAVLQSSGLYSLSSVVTVPSSSLGTQTYICNVNHKPSNTKVDKKVEPKSCDKTHTCPPCPAPELAGAPSVFLFPPKPKDTLMISRTPEVTCVWDVSHEDPEVKFNWYVDGVEVHNAKTKPREEQYNSTYRWSVLTVLHQDWLNGKEYKCKVSNKALPAPIEKTISKAKGQPREPQVYTLPPSRDELTKNQVSLTCLVKGFYPSDIAVEWESNGQPENNYKTTPPVLDSDGSFFLYSKLTVDKSRWQQGNVFSCSVMHEALHNHYTQKSLSLSPGK
light: DIVMTQSPLSLPVTPGEPASISCRVSQSLLHSNGYTYLHWYLQKPGQSPQLLIYKVSNRFSGVPDRFSGSGSGTDFTLKISRVEAEDVGVYYCSQTRHVPYTFGGGTKVEIKRTVAAPSVFIFPPSDEQLKSGTASVVCLLNNFYPREAKVQWKVDNALQSGNSQESVTEQDSKDSTYSLSSTLTLSKADYEKHKVYACEVTHQGLSSPVTKSFNRGEC
modifications: Mature H2 heavy chain amino acid sequence.; Mature Light chain amino acid sequence.
For B1, the “overall increase of CFI bioactivity” value (after the second administration) was 10% and the “overall increase of CFI bioactivity” value (after the third administration) was 28%.
